Experimental data as given in patent US20260077004A1 (UNIVERSITY OF MASSACHUSETTS, published 2026).

Biological target: wild-type KCNH2 (human, UniProt Q12809 1-1159)
Test: cell-based or functional assay

B1: truncated G628S KCNH2 (other)
chain: MPVRRGHVAPQNTFLDTIIRKFEGQSRKFIIANARVENCAVIYCNDGFCELCGYSRAEVMQRPCTCDFLHGPRTQRRAAAQIAQALLGAEERKVEIAFYRKDGSCFLCLVDVVPVKNEDGAVIMFILNFEVVMEKDMVGSPAHDTNHRGPPTSWLAPGRAKTFRLKLPALLALTARESSVRSGGAGGAGAPGAVVVDVDLTPAAPSSESLALDEVTAMDNHVAGLGPAEERRALVGPGSPPRSAPGQLPSPRAHSLNPDASGSSCSLARTRSRESCASVRRASSADDIEAMRAGVLPPPPRHASTGAMHPLRSGLLNSTSDSDLVRYRTISKIPQITLNFVDLKGDPFLASPTSDREIIAPKIKERTHNVTEKVTQVLSLGADVLPEYKLQAPRIHRWTILHYSPFKAVWDWLILLLVIYTAVFTPYSAAFLLKETEEGPPATECGYACQPLAVVDLIVDIMFIVDILINFRTTYVNANEEVVSHPGRIAVHYFKGWFLIDMVAAIPFDLLIFGSGSEELIGLLKTARLLRLVRVARKLDRYSEYGAAVLFLLMCTFALIAHWLACIWYAIGNMEQPHMDSRIGWLHNLGDQIGKPYNSSGLGGPSIKDKYVTALYFTFSSLTSVGFSNVSPNTNSEKIFSICVMLIGSLMYASIFGNVSAIIQRLYSGTARYHTQMLRVREFIRFHQIPNPLRQRLEEYFQHAWSYTNGIDMNAVLKGFPECLQADICLHLNRSLLQHCKPFRGATKGCLRALAMKFKTTHAPPGDTLVHAGDLLTALYFISRGSIEILRGDVVVAILGKNDIFGEPLNLYARPGKSNGDVRALTYCDLHKIHRDDLLEVLDMYPEFSDHFWSSLEITFNLRDTNMIPGSPGSTELEGGFSRQRKRKLSFRRRTDKDTEQPGEVSALGPGRAGAGPSSRG
  reduction in sustained current (IKr) relative to GFP control cells, CHO cells: 70%
  reduction in tail current (IKr) relative to GFP control cells, CHO cells: 78%

B2: full-length G628S KCNH2 (other)
chain: MPVRRGHVAPQNTFLDTIIRKFEGQSRKFIIANARVENCAVIYCNDGFCELCGYSRAEVMQRPCTCDFLHGPRTQRRAAAQIAQALLGAEERKVEIAFYRKDGSCFLCLVDVVPVKNEDGAVIMFILNFEVVMEKDMVGSPAHDTNHRGPPTSWLAPGRAKTFRLKLPALLALTARESSVRSGGAGGAGAPGAVVVDVDLTPAAPSSESLALDEVTAMDNHVAGLGPAEERRALVGPGSPPRSAPGQLPSPRAHSLNPDASGSSCSLARTRSRESCASVRRASSADDIEAMRAGVLPPPPRHASTGAMHPLRSGLLNSTSDSDLVRYRTISKIPQITLNFVDLKGDPFLASPTSDREIIAPKIKERTHNVTEKVTQVLSLGADVLPEYKLQAPRIHRWTILHYSPFKAVWDWLILLLVIYTAVFTPYSAAFLLKETEEGPPATECGYACQPLAVVDLIVDIMFIVDILINFRTTYVNANEEVVSHPGRIAVHYFKGWFLIDMVAAIPFDLLIFGSGSEELIGLLKTARLLRLVRVARKLDRYSEYGAAVLFLLMCTFALIAHWLACIWYAIGNMEQPHMDSRIGWLHNLGDQIGKPYNSSGLGGPSIKDKYVTALYFTFSSLTSVGFSNVSPNTNSEKIFSICVMLIGSLMYASIFGNVSAIIQRLYSGTARYHTQMLRVREFIRFHQIPNPLRQRLEEYFQHAWSYTNGIDMNAVLKGFPECLQADICLHLNRSLLQHCKPFRGATKGCLRALAMKFKTTHAPPGDTLVHAGDLLTALYFISRGSIEILRGDVVVAILGKNDIFGEPLNLYARPGKSNGDVRALTYCDLHKIHRDDLLEVLDMYPEFSDHFWSSLEITFNLRDTNMIPGSPGSTELEGGFSRQRKRKLSFRRRTDKDTEQPGEVSALGPGRAGAGPSSRGRPGGPWGESPSSGPSSPESSEDEGPGRSSSPLRLVPFSSPRPPGEPPGGEPLMEDCEKSSDTCNPLSGAFSGVSNIFSFWGDSRGRQYQELPRCPAPTPSLLNIPLSSPGRRPRGDVESRLDALQRQLNRLETRLSADMATVLQLLQRQMTLVPPAYSAVTTPGPGPTSTSPLLPVSPLPTLTLDSLSQVSQFMACEELPPGAPELPQEGPTRRLSLPGQLGALTSQPLHRHGSDPGS
  reduction in sustained current (IKr) relative to GFP control cells, CHO cells: 65%
  reduction in tail current (IKr) relative to GFP control cells, CHO cells: 58%
